Starred links: 1 amine or outer side, 2 acyl side, 3 side chain; linkers in the order of their positions; H or OH if unused. Non-standard residues stand in square brackets, D forms with d. *: point of attachment. Palmitoyl = CCCCCCCCCCCCCCCC(=O)*; tBuAla = CC(C)(C)C[C@H](N)C(=O)O; Suc = O=C(CCC(=O)[*:2])[*:1]; Isovaleryl = CC(C)CC(=O)*; Pentanoyl = CCCCC(=O)*
B1: peptide 14 (peptide)
peptide: Pentanoyl-ANYAALIEALIRAAQEQQEKNEAALR-NH2
SMILES: CCCCC(=O)N[C@@H](C)C(=O)N[C@@H](CC(N)=O)C(=O)N[C@@H](Cc1ccc(O)cc1)C(=O)N[C@@H](C)C(=O)N[C@@H](C)C(=O)N[C@@H](CC(C)C)C(=O)N[C@H](C(=O)N[C@@H](CCC(=O)O)C(=O)N[C@@H](C)C(=O)N[C@@H](CC(C)C)C(=O)N[C@H](C(=O)N[C@@H](CCCNC(=N)N)C(=O)N[C@@H](C)C(=O)N[C@@H](C)C(=O)N[C@@H](CCC(N)=O)C(=O)N[C@@H](CCC(=O)O)C(=O)N[C@@H](CCC(N)=O)C(=O)N[C@@H](CCC(N)=O)C(=O)N[C@@H](CCC(=O)O)C(=O)N[C@@H](CCCCN)C(=O)N[C@@H](CC(N)=O)C(=O)N[C@@H](CCC(=O)O)C(=O)N[C@@H](C)C(=O)N[C@@H](C)C(=O)N[C@@H](CC(C)C)C(=O)N[C@@H](CCCNC(=N)N)C(N)=O)[C@@H](C)CC)[C@@H](C)CC
B2: peptide 12 (peptide)
peptide: Suc-[dA]NYLALIEALIRAAQEQQEKNEAAL[dR]-NH2
SMILES: CC[C@H](C)[C@H](NC(=O)[C@H](CC(C)C)NC(=O)[C@H](C)NC(=O)[C@H](CCC(=O)O)NC(=O)[C@@H](NC(=O)[C@H](CC(C)C)NC(=O)[C@H](C)NC(=O)[C@H](CC(C)C)NC(=O)[C@H](Cc1ccc(O)cc1)NC(=O)[C@H](CC(N)=O)NC(=O)[C@@H](C)NC(=O)CCC(=O)O)[C@@H](C)CC)C(=O)N[C@@H](CCCNC(=N)N)C(=O)N[C@@H](C)C(=O)N[C@@H](C)C(=O)N[C@@H](CCC(N)=O)C(=O)N[C@@H](CCC(=O)O)C(=O)N[C@@H](CCC(N)=O)C(=O)N[C@@H](CCC(N)=O)C(=O)N[C@@H](CCC(=O)O)C(=O)N[C@@H](CCCCN)C(=O)N[C@@H](CC(N)=O)C(=O)N[C@@H](CCC(=O)O)C(=O)N[C@@H](C)C(=O)N[C@@H](C)C(=O)N[C@@H](CC(C)C)C(=O)N[C@H](CCCNC(=N)N)C(N)=O
B3: peptide 16 (peptide)
peptide: Pentanoyl-ANYAALIEALIRKAQEQQEKNEAALR-NH2
SMILES: CCCCC(=O)N[C@@H](C)C(=O)N[C@@H](CC(N)=O)C(=O)N[C@@H](Cc1ccc(O)cc1)C(=O)N[C@@H](C)C(=O)N[C@@H](C)C(=O)N[C@@H](CC(C)C)C(=O)N[C@H](C(=O)N[C@@H](CCC(=O)O)C(=O)N[C@@H](C)C(=O)N[C@@H](CC(C)C)C(=O)N[C@H](C(=O)N[C@@H](CCCNC(=N)N)C(=O)N[C@@H](CCCCN)C(=O)N[C@@H](C)C(=O)N[C@@H](CCC(N)=O)C(=O)N[C@@H](CCC(=O)O)C(=O)N[C@@H](CCC(N)=O)C(=O)N[C@@H](CCC(N)=O)C(=O)N[C@@H](CCC(=O)O)C(=O)N[C@@H](CCCCN)C(=O)N[C@@H](CC(N)=O)C(=O)N[C@@H](CCC(=O)O)C(=O)N[C@@H](C)C(=O)N[C@@H](C)C(=O)N[C@@H](CC(C)C)C(=O)N[C@@H](CCCNC(=N)N)C(N)=O)[C@@H](C)CC)[C@@H](C)CC
B4: peptide 13 (peptide)
peptide: Suc-ANYLALIEALIRAAQEQQEKNEAALK(Palmitoyl)-NH2
SMILES: CCCCCCCCCCCCCCCC(=O)NCCCC[C@H](NC(=O)[C@H](CC(C)C)NC(=O)[C@H](C)NC(=O)[C@H](C)NC(=O)[C@H](CCC(=O)O)NC(=O)[C@H](CC(N)=O)NC(=O)[C@H](CCCCN)NC(=O)[C@H](CCC(=O)O)NC(=O)[C@H](CCC(N)=O)NC(=O)[C@H](CCC(N)=O)NC(=O)[C@H](CCC(=O)O)NC(=O)[C@H](CCC(N)=O)NC(=O)[C@H](C)NC(=O)[C@H](C)NC(=O)[C@H](CCCNC(=N)N)NC(=O)[C@@H](NC(=O)[C@H](CC(C)C)NC(=O)[C@H](C)NC(=O)[C@H](CCC(=O)O)NC(=O)[C@@H](NC(=O)[C@H](CC(C)C)NC(=O)[C@H](C)NC(=O)[C@H](CC(C)C)NC(=O)[C@H](Cc1ccc(O)cc1)NC(=O)[C@H](CC(N)=O)NC(=O)[C@H](C)NC(=O)CCC(=O)O)[C@@H](C)CC)[C@@H](C)CC)C(N)=O
B5: peptide 15 (peptide)
peptide: Pentanoyl-ANYLALIEALIRAAQEQQEKNEAALR-NH2
SMILES: CCCCC(=O)N[C@@H](C)C(=O)N[C@@H](CC(N)=O)C(=O)N[C@@H](Cc1ccc(O)cc1)C(=O)N[C@@H](CC(C)C)C(=O)N[C@@H](C)C(=O)N[C@@H](CC(C)C)C(=O)N[C@H](C(=O)N[C@@H](CCC(=O)O)C(=O)N[C@@H](C)C(=O)N[C@@H](CC(C)C)C(=O)N[C@H](C(=O)N[C@@H](CCCNC(=N)N)C(=O)N[C@@H](C)C(=O)N[C@@H](C)C(=O)N[C@@H](CCC(N)=O)C(=O)N[C@@H](CCC(=O)O)C(=O)N[C@@H](CCC(N)=O)C(=O)N[C@@H](CCC(N)=O)C(=O)N[C@@H](CCC(=O)O)C(=O)N[C@@H](CCCCN)C(=O)N[C@@H](CC(N)=O)C(=O)N[C@@H](CCC(=O)O)C(=O)N[C@@H](C)C(=O)N[C@@H](C)C(=O)N[C@@H](CC(C)C)C(=O)N[C@@H](CCCNC(=N)N)C(N)=O)[C@@H](C)CC)[C@@H](C)CC
B6: peptide 11 (peptide)
peptide: Suc-ANYLALIEAL[tBuAla]RAAQEQQEKNEAALR-NH2
SMILES: CC[C@H](C)[C@H](NC(=O)[C@H](CC(C)C)NC(=O)[C@H](C)NC(=O)[C@H](CC(C)C)NC(=O)[C@H](Cc1ccc(O)cc1)NC(=O)[C@H](CC(N)=O)NC(=O)[C@H](C)NC(=O)CCC(=O)O)C(=O)N[C@@H](CCC(=O)O)C(=O)N[C@@H](C)C(=O)N[C@@H](CC(C)C)C(=O)N[C@@H](CC(C)(C)C)C(=O)N[C@@H](CCCNC(=N)N)C(=O)N[C@@H](C)C(=O)N[C@@H](C)C(=O)N[C@@H](CCC(N)=O)C(=O)N[C@@H](CCC(=O)O)C(=O)N[C@@H](CCC(N)=O)C(=O)N[C@@H](CCC(N)=O)C(=O)N[C@@H](CCC(=O)O)C(=O)N[C@@H](CCCCN)C(=O)N[C@@H](CC(N)=O)C(=O)N[C@@H](CCC(=O)O)C(=O)N[C@@H](C)C(=O)N[C@@H](C)C(=O)N[C@@H](CC(C)C)C(=O)N[C@@H](CCCNC(=N)N)C(N)=O
B7: peptide 17 (peptide)
peptide: Isovaleryl-ANYAALIEALIRAAQEQQEKNEAALR-NH2
SMILES: CC[C@H](C)[C@H](NC(=O)[C@H](CC(C)C)NC(=O)[C@H](C)NC(=O)[C@H](CCC(=O)O)NC(=O)[C@@H](NC(=O)[C@H](CC(C)C)NC(=O)[C@H](C)NC(=O)[C@H](C)NC(=O)[C@H](Cc1ccc(O)cc1)NC(=O)[C@H](CC(N)=O)NC(=O)[C@H](C)NC(=O)CC(C)C)[C@@H](C)CC)C(=O)N[C@@H](CCCNC(=N)N)C(=O)N[C@@H](C)C(=O)N[C@@H](C)C(=O)N[C@@H](CCC(N)=O)C(=O)N[C@@H](CCC(=O)O)C(=O)N[C@@H](CCC(N)=O)C(=O)N[C@@H](CCC(N)=O)C(=O)N[C@@H](CCC(=O)O)C(=O)N[C@@H](CCCCN)C(=O)N[C@@H](CC(N)=O)C(=O)N[C@@H](CCC(=O)O)C(=O)N[C@@H](C)C(=O)N[C@@H](C)C(=O)N[C@@H](CC(C)C)C(=O)N[C@@H](CCCNC(=N)N)C(N)=O

Biological target: gp41 of HIV-1 strain HXB2D with mutation V38A (HIV-1 strain HXB2D, UniProt P04578)
Assay: cell-based or functional assay

Row | Binder | fold change in EC50, HIV-HXB2D V38A mutant
1 | B1 | 46 fold
2 | B2 | 51 fold
3 | B3 | 49 fold
4 | B4 | 2 fold
5 | B5 | 18 fold
6 | B6 | 26 fold
7 | B7 | 75 fold

— patent publication US20140357577A1, “HIV Membrane Fusion Inhibitors” (priority 2011, published 2014)
